Key:
[1] = target: H-2Db class I H chain, beta2m-free, in R1E-Db cells (mouse); test: cross-linking
[2] = target: H-2Kb class I H chain, beta2m-free, in R1E-Kb cells (mouse); test: cross-linking
Sequence of H-2Kb class I H chain, beta2m-free, in R1E-Kb cells (mouse) (P01901 22-369): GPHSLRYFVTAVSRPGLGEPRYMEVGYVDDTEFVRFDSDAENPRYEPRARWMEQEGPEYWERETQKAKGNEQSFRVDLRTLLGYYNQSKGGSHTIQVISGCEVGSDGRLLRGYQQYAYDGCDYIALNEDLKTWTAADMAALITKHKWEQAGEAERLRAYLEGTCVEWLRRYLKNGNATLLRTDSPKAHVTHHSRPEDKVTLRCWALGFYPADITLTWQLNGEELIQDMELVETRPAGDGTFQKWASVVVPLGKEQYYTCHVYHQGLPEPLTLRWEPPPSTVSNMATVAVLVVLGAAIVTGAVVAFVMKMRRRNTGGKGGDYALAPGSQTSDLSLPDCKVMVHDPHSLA

percent of H chains crosslinked to p88 [1]: 25%
percent of H chains crosslinked to p88 [2]: 50%
B1: p88 (88-kD protein), murine (natural protein)
chain: HDGHDDDAIDIEDDLDDVIEEVEDSKSKSDASTPPSPKVTYKAPVPTGEVYFADSFDRGSLSGWILSKAKKDDTDDEIAKYDGKWEVDEMKETKLPGDKGLVLMSRAKHHAISAKLNKPFLFDTKPLIVQYEVNFQNGIECGGAYVKLLSKTAELSLDQFHDKTPYTIMFGPDKCGEDYKLHFIFRHKNPKTGVYEEKHAKRPDADLKTYFTDKKTHLYTLILNPDNSFEILVDQSVVNSGNLLNDMTPPVNPSREIEDPEDRKPEDWDERPKIADPDAVKPDDWDEDAPSKIPDEEATKPEGWLDDEPEYIPDPDAEKPEDWDEDMDGEWEAPQIANPKCESAPGCGVWQRPMIDNPNYKGKWKPPMIDNPNYQGIWKPRKIPNPDFFEDLEPFKMTPFSAIGLELWSMTSDIFFDNFIISGDRRVVDDWANDGWGLKKAADGAAEPGVVLQMLEAAEERPWLWVVYILTVALPVFLVILFCCSGKKQSNAMEYKKTDAPQPDVKDEEGKEEEKNKRDEEEEEEKLEEKQKSDAEEDGVTGSQDEEDSKPKAEEDEILNRSPRNRKPRRE

— PMC2119236
